Experimental data reported in article PMC9188544, “Mechanism of glycogen synthase inactivation and interaction with glycogenin” (Nature Communications, 2022).
Changes are numbered by the printed parent chain. Names and notes keep the numbering of the source.

Key:
[1] = target: the molecule itself; experiment: negative-stain electron microscopy; purified co-expressed complex at 0.01-0.02 mg/mL in 25 mM HEPES pH 7.5, 150 mM NaCl, 1 mM TCEP, 10% glycerol; uranyl acetate stain; 2D classes and 3D map (C1, ~22 Å)
[2] = target: T1, human glycogen synthase 1 (GS1) H610E (human, UniProt P13807 1-737, H610E, phosphorylation at S8, S641 and S641/S645 probed by immunoblot (Fig. 4b)); experiment: co-purification (HisTrap, TEV cleavage, Ni subtraction, Superdex200 gel filtration); GS WT or mutant co-expressed with GN(Y195F) in insect cells, both with N-terminal His6-TEV; lysate loaded on the HisTrap column; conditions: partners not purified
T1 construct: glycogen synthase 1 (muscle), human, encoded by GYS1, cDNA NM 002103; also called GS H610E; not shown: His6, N-terminal, cleaved
T1 sequence (looked up): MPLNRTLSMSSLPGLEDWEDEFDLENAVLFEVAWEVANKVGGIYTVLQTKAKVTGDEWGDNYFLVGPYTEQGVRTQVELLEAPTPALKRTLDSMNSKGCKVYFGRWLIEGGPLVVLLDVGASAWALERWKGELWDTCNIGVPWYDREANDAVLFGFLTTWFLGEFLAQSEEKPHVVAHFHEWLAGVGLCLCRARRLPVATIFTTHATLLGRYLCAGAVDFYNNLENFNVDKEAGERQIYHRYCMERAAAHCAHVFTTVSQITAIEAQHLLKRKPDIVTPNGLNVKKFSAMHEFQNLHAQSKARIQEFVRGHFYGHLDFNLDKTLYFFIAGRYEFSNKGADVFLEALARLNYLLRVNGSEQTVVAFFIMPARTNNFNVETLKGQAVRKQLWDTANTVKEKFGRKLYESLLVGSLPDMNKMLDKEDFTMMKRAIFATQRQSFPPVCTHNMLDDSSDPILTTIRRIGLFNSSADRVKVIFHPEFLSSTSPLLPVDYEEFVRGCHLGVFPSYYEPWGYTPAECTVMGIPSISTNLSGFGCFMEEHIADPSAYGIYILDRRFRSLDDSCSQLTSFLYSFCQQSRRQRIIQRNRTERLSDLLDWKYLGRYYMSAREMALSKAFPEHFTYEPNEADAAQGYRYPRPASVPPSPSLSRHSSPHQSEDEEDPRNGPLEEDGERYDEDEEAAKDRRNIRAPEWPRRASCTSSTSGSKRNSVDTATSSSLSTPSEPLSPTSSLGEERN

[3] = target: T2, human glycogen synthase 1 (GS1) R588A + R591A (human, UniProt P13807 1-737, R588A | R591A, phosphorylation at S8, S641 and S641/S645 probed by immunoblot (Fig. 4b)); experiment: as above; conditions: partners not purified
T2 construct: glycogen synthase 1 (muscle), human, encoded by GYS1, cDNA NM 002103; also called GS R588A + R591A double mutant; not shown: His6, N-terminal, cleaved
T2 sequence (looked up): T1 sequence (looked up) with R588A, R591A, E610H

[4] = target: T3, human glycogen synthase 1 (GS1) Y600A (human, UniProt P13807 1-737, Y600A, phosphorylation at S8, S641 and S641/S645 probed by immunoblot (Fig. 4b)); experiment: as above; conditions: partners not purified
T3 construct: glycogen synthase 1 (muscle), human, encoded by GYS1, cDNA NM 002103; also called GS Y600A; not shown: His6, N-terminal, cleaved
T3 sequence (looked up): T1 sequence (looked up) with Y600A, E610H

binding result [2]: binds
binding result [3]: binds
binding result [4]: binds
B1: human glycogenin 1 (GN1) Y195F, full length, non-glucosylated (enzyme, UniProt P46976-2 1-333, looked up)
chain: MTDQAFVTLTTNDAYAKGALVLGSSLKQHRTTRRLVVLATPQVSDSMRKVLETVFDEVIMVDVLDSGDSAHLTLMKRPELGVTLTKLHCWSLTQYSKCVFMDADTLVLANIDDLFDREELSAAPDPGWPDCFNSGVFVYQPSVETYNQLLHLASEQGSFDGGDQGILNTFFSSWATTDIRKHLPFIYNLSSISIFSYLPAFKVFGASAKVVHFLGRVKPWNYTYDPKTKSVKSEAHDPNMTHPEFLILWWNIFTTNVLPLLQQFGLVKDTCSYVNVEDVSGAISHLSLGEIPAMAQPFVSSEERKERWEQGQADYMGADSFDNIKRKLDTYLQ
notes: glycogenin 1, human, encoded by GYG1, cDNA NM 001184720, full length; expected ~37.5 kDa; the C-terminal GN34 region is modelled as residues 300-332, which fits the 333-residue isoform; Cloned in pFL (with untagged GS) and in pFastBac (co-infected with His6-TEV-GS WT or mutants); Both carry an N-terminal His6 tag and a cleavable site, so they are treated as one molecule; also called GN(Y195F); GN …
stoichiometry N [1]: 2
